Laboratory results from patent US20180312587A1 (ADURO BIOTECH HOLDINGS EUROPE B V, published 2018).
Each block holds one binder with its values, some of them ahead of it.

Tests used:
[1] = molecular target: T1, hSIRPα expressed on primary human cells (human, UniProt P78324 31-504); experiment: flow cytometry, primary CD14+ enriched monocytes, donor 2
T1 construct: whole, on cells; also called hSIRPα on primary human CD14+ monocytes; on primary human granulocytes
Protocol: Next, the binding of hSIRPα.50A to hSIRPα expressed on primary human CD14⁺ monocytes was investigated. In addition, the ability of hSIRPα.50A to block the interaction between hSIRPα and recombinant hCD47/Fc-protein was assessed. For this purpose, CD14+ monocytes were isolated from Ficoll-purified human peripheral blood mononuclear cells (PBMCs) using RosetteSep human monocyte enrichment cocktail (Stemcell). The percentage of monocytes present after the enrichment was determined by flow cytometry on the FACSVerse (BD Biosciences) based on CD14 staining using an APC-Cy7-conjugated mouse-anti-human CD14 detection antibody (BD Biosciences). […] After this labeling procedure, cells were washed two times, resuspended in PBS/1% BSA containing 0.1 μg/mL DAPI (BioLegend), and analysed by flow cytometry on the FACSVerse (BD Biosciences). Data were processed and analysed with FlowJo V10 software (FlowJo, LLC).
To assess the blocking ability of hSIRPα.50A, CD14+ enriched monocytes cells were seeded in 96-well round bottomed tissue culture plates and incubated for 45 minutes with FcR Blocking Reagent (Miltenyi Biotec) and hSIRPα.50A antibody (200 μg/mL and dilutions thereof) in PBS/1% BSA at 4° C. […] After this labeling procedure, cells were washed two times, resuspended in PBS/1% BSA containing 0.1 μg/mL DAPI (BioLegend), and analysed by flow cytometry on the FACSVerse (BD Biosciences). […]

[2] = molecular target: T1, hSIRPα expressed on primary human cells; experiment: flow cytometry on CD14+ enriched monocytes, human donor 1; blocked ligand: DyLight 488-labeled recombinant hCD47/Fc
Protocol: To assess the blocking ability of hSIRPα.40A, CD14+ enriched monocytes cells were seeded in 96-well round bottomed tissue culture plates and incubated for 45 minutes with FcR Blocking Reagent (Miltenyi Biotec) and hSIRPα.40A antibody (20 μg/mL and dilutions thereof) in PBS/1% BSA at 4° C. […] After this labeling procedure, cells were washed two times, resuspended in PBS/1% BSA containing 0.1 μg/mL DAPI (BioLegend), and analysed by flow cytometry on the FACSVerse (BD Biosciences). Data were processed and analysed with FlowJo V10 software (FlowJo, LLC). […] IC50 values represent the concentration at which half of the inhibition is observed.

T1 sequence (P78324 31-504): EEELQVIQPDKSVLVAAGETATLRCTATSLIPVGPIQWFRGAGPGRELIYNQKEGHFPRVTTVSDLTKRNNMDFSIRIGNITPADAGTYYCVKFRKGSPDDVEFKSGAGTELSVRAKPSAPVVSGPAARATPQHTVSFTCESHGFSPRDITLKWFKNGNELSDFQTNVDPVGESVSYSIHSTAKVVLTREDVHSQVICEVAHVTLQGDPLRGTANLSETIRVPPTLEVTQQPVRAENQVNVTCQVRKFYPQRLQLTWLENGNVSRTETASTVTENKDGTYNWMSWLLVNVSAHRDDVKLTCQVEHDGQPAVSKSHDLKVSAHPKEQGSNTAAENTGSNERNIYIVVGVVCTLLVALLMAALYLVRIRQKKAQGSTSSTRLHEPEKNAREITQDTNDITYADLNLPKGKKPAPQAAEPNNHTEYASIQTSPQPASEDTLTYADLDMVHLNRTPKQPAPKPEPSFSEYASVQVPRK

EC50 [1]: 3.08 nM
B1: hSIRPα.50A (antibody, V domains shown)
VH: QVQLQQSGPELVKPGASVRISCKASGFTFTNYYIHWVKQRPGQGLEWIGWIYPGNVNTKYNEKFKAKATLTADKSSTTAYMQLSSLASEDSAVYFCARPTIIATDFDVWGAGTTVTVSS
VL: DIVMTQSHKFMSTSVGDRVNITCKASQGVGTAVGWYQQKPGQSPRLLIYWASTRHTGVPDRFTGSGSGTDFSLAISNVQSEDLADYFCQQYSTYPFTFGGGTNLEIK
notes: light chain constant domain not tied; also called mouse hSIRPα.50A; hSIRPα.50A.mIgG1

IC50 (read off the curve) [2]: ~0.4 nM
B2: hSIRPα.40A (antibody, mouse IgG1, kappa, V domains shown)
VH: EVQFQQSGTVLARPGTSVKMSCKASGSTFTSYWMHWVKQGPGQGLQWIGAIYPVNNDTTYNQKFKGKAELTVVTSTSTAYMEVSSLTNEDSAVYYCTRSFYYSLDAAWFVYWGQGTLVTVSA
VL: DIQMTQSPSSLSASLGERVSLTCRASQDIGSRLNWLQQEPDGTIKRLIYATSSLDSGVPKRFSGSRSGSDYSLTISGLESEDFVDYYCLQYASSPFTFGGGTKLEINR
notes: mouse antibody, full chains without signal peptide; also called mouse hSIRPα.40A
